Measured values: patent US20250326813A1 (ELPIS BIOPHARMACEUTICALS, published 2025)
Substitutions are numbered along the chain they refer to. Names and notes keep the numbering of the source.

Columns and labels:
[1] = biological target: T1, human IL2Rβ Fc fusion protein (human, UniProt P14784 27-239); assay: ELISA on coated receptor-Fc, anti-His detection; grade by OD450 (medium: 0.7-1.5)
T1 construct: also called ILR2β; CD122; not shown: Fc part
T1 sequence (looked up): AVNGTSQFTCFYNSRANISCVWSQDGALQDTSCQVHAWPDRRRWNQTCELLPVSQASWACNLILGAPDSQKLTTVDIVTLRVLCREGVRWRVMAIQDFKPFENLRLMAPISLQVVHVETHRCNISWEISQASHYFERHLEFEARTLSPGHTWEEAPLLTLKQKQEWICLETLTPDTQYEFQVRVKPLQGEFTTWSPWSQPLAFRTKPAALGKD
Procedure: (§1) Mammalian cell-produced agonists were characterized for their binding activities to respective IL2Rβ and IL2Rα receptors by ELISA. Briefly, 384 well plate was immobilized with human IL2Rα and IL2Rβ Fc fusion proteins at a final concentration of 2 μg/mL in 1× PBS in total volume of 25 μL per well. The plate was incubated overnight at 4° C. and blocked with 80 μL of superblock per well for 1 hour. The purified clones were added to IL2Rα or IL-2Rβ wells in parallel in duplicates as a titration, with the highest concentration of 1 μM, followed by a 10 point 5× serial dilution of the clones. The binding activity was detected by adding 25 μL of anti-His HRP diluted at 1:5000 in 1× PBST. In between each step, the plate was washed three times with 1× PBST using a plate washer. The plate was then developed with 25 μL of TMB substrate for five minutes and stopped by adding 25 μL of 2N sulfuric acid. The plate was read at OD450 nm Biotek plate reader and the bar graph at 1 μM of IL2 was generated with Prism 8.1 software (FIG. 2).

[2] = biological target: T2, human IL2Rα Fc fusion protein (human, UniProt P01589 22-213, limits assumed); assay: as above
T2 construct: also called CD25; not shown: Fc part
T2 sequence (looked up): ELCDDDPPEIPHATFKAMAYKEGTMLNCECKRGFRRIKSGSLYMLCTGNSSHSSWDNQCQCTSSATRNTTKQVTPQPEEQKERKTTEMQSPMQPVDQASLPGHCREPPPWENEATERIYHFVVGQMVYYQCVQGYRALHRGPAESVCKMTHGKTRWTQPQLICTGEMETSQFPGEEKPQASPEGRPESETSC
Procedure: as §1

[3] = biological target: T1, human IL2Rβ Fc fusion protein; assay: SPR (Biacore T200), receptor captured on Protein A chip, IL2 at 100 nM and 20 nM
Procedure: (§2) The assay was run with Biacore T200 control software version 2.0. For each cycle, 1 μg/mL of human IL2Rβ or IL2Rα was captured for 60 seconds at flow rate of 10 μL/min on flow cell 2 in 1× HBSP buffer on Protein A sensor chip. 100 nM and 20 nM of HIS tag purified engineered IL2 mutant was injected onto both reference flow cell 1 and IL2Rβ or IL2Rα captured flow cell 2 for 150 seconds at flow rate of 30 μL/min followed by washing for 300 seconds. The flow cells were then regenerated with Glycine pH 2 for 60 seconds at a flow rate of 30 μL/mins. The kinetics data was analyzed with Biacore T200 evaluation software 3000. The specific binding response unit was derived from subtraction of binding to reference flow cell 1 from target flow cell 2.

[4] = biological target: T1, human IL2Rβ Fc fusion protein; assay: ELISA: human IL2Rβ Fc fusion coated at 2 µg/mL, purified His-tagged IL2 titrated from 1 µM in 5x steps, anti-His HRP, OD450
Procedure: as §1

[5] = biological target: T1, human IL2Rβ Fc fusion protein; assay: ELISA on coated receptor-Fc, anti-His detection, single point 1 µM
Procedure: Back-mutations were characterized for their binding activities to IL2Rβ and IL2Rα receptors by ELISA. Briefly, 384 well plate was immobilized with human IL2Rα and IL2Rβ Fc fusion proteins at a final concentration of 2 μg/mL in 1× PBS in total volume of 25 μL per well. The plate was incubated overnight at 4° C. and blocked with 80 μL of superblock per well for 1 hour. […] The IL2 mutant binding was detected by adding 25 μL of anti-His HRP diluted at 1:5000 in 1× PBST. In between each step, the plate was washed three times with 1× PBST using a plate washer. […] The plate was then developed with 25 μL of TMB substrate for five minutes and stopped by adding 25 μl of 2N sulfuric acid. The plate was read at OD450 nm Biotek plate reader (Table 6) and the data was analyzed with Prism 8.1 software to generate bar graph (FIG. 5).

[6] = biological target: T2, human IL2Rα Fc fusion protein; assay: SPR (Biacore T200), receptor captured on Protein A chip, IL2 at 100 nM and 20 nM
Procedure: as §2

[7] = biological target: T1, human IL2Rβ Fc fusion protein; assay: ELISA, single concentration, anti-flag detection, E. coli-produced clone
Procedure: (§3) Supernatants containing engineered IL2 mutants were assessed with sandwich ELISA assay to screen for IL2Rα binding. Briefly, 96-well plate was immobilized with human Fc and human IL2Rα, respectively, at a final concentration of 2 μg/mL in 1× PBS in total volume of 50 μL per well. The plate was incubated overnight at 4° C. followed by blocking with 200 μL of superblock per well for 1 hour. 100 μl of supernatant was added to both Fc and IL2Rα immobilized wells and incubated for 1 hour with shaking. The engineered IL2 mutant binding was detected by adding 50 μL of anti-Flag HRP diluted at 1:5000 in 1× PBST. In between each step, the plate was washed three times with 1× PBST in a plate washer. The plate was then developed with 50 μL of TMB substrate for five minutes and stopped by adding 50 μL of 2N sulfuric acid. The plate was read at OD450 nm using a Biotek plate reader and the binding and selectivity was analyzed.
as §3, with “Single clones were next screened for IL2Rβ binding. IL2Rβ binding screening ELISA was developed for the identification of individual” for “Supernatants containing”, “mutant.” for “mutants were assessed with sandwich ELISA assay to screen for IL2Rα binding.”, “IL2Rβ,” for “IL2Rα,”, “IL2Rβ” for “IL2Rα”
(§4) To further triage, the engineered IL2 clones with unique sequences were produced in E. coli. In short, the glycerol stock of each engineered agonist clone was inoculated into TB medium for overnight growth. The next day, cells from the overnight culture were inoculated into TB medium and grown to a cell density of OD₆₀₀ between 0.6-0.8. IPTG was added to a final concentration of 1 mM to induce the expression during culture at 30° C. overnight. The supernatant was collected by centrifugation.

[8] = biological target: T2, human IL2Rα Fc fusion protein; assay: as above
Procedure: as §3
as §3, with “Single clones were next screened for IL2Rβ binding. IL2Rβ binding screening ELISA was developed for the identification of individual” for “Supernatants containing”, “mutant.” for “mutants were assessed with sandwich ELISA assay to screen for IL2Rα binding.”, “IL2Rβ,” for “IL2Rα,”, “IL2Rβ” for “IL2Rα”
as §4

[9] = biological target: T1, human IL2Rβ Fc fusion protein; assay: SPR (Biacore T200), receptor captured on Protein A chip
Procedure: as §2

B1: EP565, mammalian cell-produced, with F35L, R38D and F42R (ligand)
chain: APASSSTKKTQLQLEHLLLDLQMILNGINNYKNPLLTDMLTRKFYMPKKATELKHLQCLEEELKPLEEVLNLAQSKNFHLRSRQLISNMNGIILKLKGSETTFMCEYADETATIVEFLNRWITFSQSIISTLT
notes: His-Flag tag not in the parts; also called 2021EP22-F10
- OD450 [1]: 0.7 to 1.5 od
- OD450 [2]: 0.7 to 1.5 od

B2: EP596, IL2Rβ enhanced binding agonist (ligand)
chain: B1 chain with R81T, S82A, Q84D, L85A, S87D, M89I, G91V, I93V, L94Q, K95E
notes: Control in SPR and ELISA
- Kd [3]: 1.03 nM
- EC50 (read off the curve) [4]: ~1 nM
- Average OD (450 nm) [5]: 1.63 OD450

B3: EP567 (clone 2021EP21-C04), E. coli-produced (ligand)
chain: APASSSTKKTQLQLEHLLLDLQMILNGINNYKNPKLTRMLTFKFYMPKKATELKHLQCLEEELKPLEEVLNLAQSKNFHLSLREPIGNIVTSVRELKGSETTFMCEYADETATIVEFLNRWITFSQSIISTLT
- Kd [6]: 188 nM
- OD450 nm [7]: 0.068 OD450
- OD450 nm [8]: 0.05 OD450
- binding result [9]: no binding (tested: Rmax < 5RU; 100 nM and 20 nM)
